Among the data in patent US20180238915A1 (published 2018) are koff values, retold here.

In assay [1] the target is T1, negatively modulated GCSF receptor (GCSFR(-)) (UniProt Q99062 25-621, modified by S-HyNic and conjugated through HyNic-4FB bonds to a 64-base DNA oligonucleotide (SEQ. ID 2, 5' C12 amino modifier); number and sites not stated).
T1 chain: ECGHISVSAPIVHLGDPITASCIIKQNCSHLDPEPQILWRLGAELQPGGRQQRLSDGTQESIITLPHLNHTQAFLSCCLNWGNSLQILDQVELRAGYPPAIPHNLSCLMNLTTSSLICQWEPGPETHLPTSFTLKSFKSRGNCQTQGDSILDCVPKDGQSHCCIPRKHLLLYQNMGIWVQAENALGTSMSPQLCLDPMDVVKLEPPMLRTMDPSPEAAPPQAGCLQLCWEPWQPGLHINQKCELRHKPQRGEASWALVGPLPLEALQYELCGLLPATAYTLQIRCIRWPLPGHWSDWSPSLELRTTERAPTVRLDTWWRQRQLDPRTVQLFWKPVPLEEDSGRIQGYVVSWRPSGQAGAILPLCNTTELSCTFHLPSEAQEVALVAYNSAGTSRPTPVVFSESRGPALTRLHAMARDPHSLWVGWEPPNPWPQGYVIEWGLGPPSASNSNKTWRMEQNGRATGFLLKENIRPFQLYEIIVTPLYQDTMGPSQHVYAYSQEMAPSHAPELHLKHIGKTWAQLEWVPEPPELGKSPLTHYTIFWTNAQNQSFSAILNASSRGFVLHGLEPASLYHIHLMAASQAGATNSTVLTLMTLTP

Assay [2] has as its target receptor.
For assay [3], the target named is receptor. The experiment in a line: BLI. (In general: In BLI a coated tip is dipped into the sample, and binding shifts an interference pattern.)

Where two headings read alike, the source gives them in different places. Where only a bound is given, the exact number is not on record here.

B1: labeled G-CSF (Alexa Fluor 488) (ligand)
chain: TPLGPASSLPQSFLLKCLEQVRKIQGDGAALQEKLCATYKLCHPEELVLLGHSLGIPWAPLSSCPSQALQLAGCLSQLHSGLFLYQGLLQALEGISPELGPTLDTLQLDVADFATTIWQQMEELGMAPALQPTQGAMPAFASAFQRRAGGVLVASHLQSFLEVSYRVLRHLAQP
modifications: Alexa Fluor 488 label (carboxylic acid succinimidyl ester); sites not stated
As a reminder, the koff is the first-order rate constant of dissociation. A lower koff goes with a long-lived complex. In the case of B1, in assay [1], the koff was 5e-05 s⁻¹.

B2: G-CSF (ligand)
chain: TPLGPASSLPQSFLLKCLEQVRKIQGDGAALQEKLCATYKLCHPEELVLLGHSLGIPWAPLSSCPSQALQLAGCLSQLHSGLFLYQGLLQALEGISPELGPTLDTLQLDVADFATTIWQQMEELGMAPALQPTQGAMPAFASAFQRRAGGVLVASHLQSFLEVSYRVLRHLAQP
As to B2, the koff is 3.8e-05 s⁻¹ with receptor [2] and below 1e-06 s⁻¹ with receptor [3].
